Where two headings read alike, the source gives them in different places. Ends that are not written are not given here.
Tests used:
[1] = target: HLA-A*0201 (human); test: inhibition of 125I probe peptide binding to purified HLA, gel filtration; settings: remark: other sources report otherwise
[2] = target: HLA-A*0206 (human); test: as above; settings: remark: other sources report otherwise
[3] = target: HLA-A*0202 (human); test: as above; settings: remark: other sources report otherwise
[4] = target: HLA-A*0202 (human); test: competition with 125I probe peptide on purified HLA, gel filtration; settings: remark: other sources report otherwise
[5] = target: HLA-A*2401 (human); test: competition with 125I-labelled probe peptide for purified HLA, gel filtration
[6] = target: HLA-A*2401 (human); test: as above; remark: listed apart in the source
[7] = target: HLA-A*2401 (purified HLA class I molecule) (human); test: competition with 125I-labelled standard peptide for purified HLA, gel filtration
[8] = target: HLA-A*0201 (human); test: as above; settings: remark: other sources report otherwise
[9] = target: HLA-A*0206 (human); test: as above; settings: remark: other sources report otherwise
[10] = target: HLA-A*0203 (human); test: as above; settings: remark: other sources report otherwise
[11] = target: HLA-A*0202 (human); test: as above; settings: remark: other sources report otherwise
[12] = target: HLA-A*6802 (human); test: inhibition of 125I probe peptide binding to purified HLA; settings: remark: other sources report otherwise
[13] = target: HLA-A*0203 (human); test: as above; settings: remark: other sources report otherwise
[14] = target: HLA-A*0201 (human); test: as above; settings: remark: other sources report otherwise
[15] = target: HLA-A*0206 (human); test: as above; settings: remark: other sources report otherwise
[16] = target: HLA-A*0201 (human); settings: remark: other sources report otherwise
[17] = target: HLA-A*6802 (human); settings: remark: other sources report otherwise
[18] = target: HLA-A*0206 (human); settings: remark: other sources report otherwise
[19] = target: HLA-A*0203 (human); settings: remark: other sources report otherwise
[20] = target: HLA-A*0202 (human); settings: remark: other sources report otherwise
[21] = target: HLA-A*2401 (purified HLA class I molecule) (human)
[22] = target: HLA-A*2401 (human)
[23] = target: HLA-A*0201 (human); test: competition with 125I probe peptide on purified HLA, gel filtration; settings: remark: other sources report otherwise
[24] = target: HLA-A*0203 (human); test: as above; settings: remark: other sources report otherwise
[25] = target: HLA-A*2401 (human); remark: listed apart in the source
[26] = scale: ratio to standard peptide

B1: Peptide 1419.25 (PSA.1) (peptide)
peptide: VVFLTLSVTWI
- IC50 [1]: 385 nM
- IC50 [2]: 2850 nM
- IC50 [3]: 159 nM

B2: Peptide 63.0109 (PSA.116.V11) (peptide)
peptide: DLMLLRLSEPV
- IC50 [1]: 50 nM

B3: Peptide 1166.11 … (PAP.196) (peptide)
peptide: GLHGQDLFGI
- IC50 [4]: 0.9 nM

B4: Peptide 60.0216 (PSA.3.V9) (peptide)
peptide: FLTLSVTWV
- IC50 [3]: 8.4 nM

B5: PAP position 22, 10 amino acids (peptide)
peptide: LFFWLDRSVL
- relative binding ratio (IC50 of standard peptide / IC50 of test peptide) [5]: 0.0045
- relative binding ratio (IC50 of standard peptide / IC50 of test peptide) [6]: 0.0045

B6: PAP position 318, 9 amino acids (peptide)
peptide: LYFEKGEYF
- relative binding ratio (IC50 of standard peptide / IC50 of test peptide) [7]: 2.5
- relative binding ratio (IC50 of standard peptide / IC50 of test peptide) [6]: 2.5

B7: Kallikrein position 8, 11 amino acids (peptide)
peptide: IALSVGCTGAV
- relative binding ratio [8]: 0.0009
- relative binding ratio [9]: 0.01
- relative binding ratio [10]: 0.027
- relative binding ratio [11]: 0.0032

B8: PSA position 174, 10 amino acids (peptide)
peptide: VISNDVCAQV
- relative binding ratio (IC50 of standard peptide / IC50 of test peptide) [8]: 0.0008

B9: Peptide 63.0033 … (PAP.29.L2) (peptide)
peptide: SLLAKELKFV
- IC50 [12]: 6670 nM
- IC50 [13]: 3.8 nM

B10: Peptide 20.0312 … (PAP.112) (peptide)
peptide: TLMSAMTNLA
- IC50 [14]: 385 nM
- IC50 [12]: 6670 nM
- IC50 [15]: 3700 nM
- IC50 [13]: 37 nM

B11: PSA position 222, 11 amino acids (peptide)
peptide: ITSWGSEPCAL
modifications: not fully specified
- relative binding ratio [8]: 0.001
- relative binding ratio [9]: 0.0001
- relative binding ratio [10]: 0.0096
- relative binding ratio [11]: 0.012

B12: peptide 1418.66 (HuK2.175.V11) (peptide)
peptide: SLHLLSNDMCV
- IC50 [16]: 8.6 nM
- IC50 [17]: 2160 nM
- IC50 [18]: 2310 nM
- IC50 [19]: 10 nM
- IC50 [20]: 0.8 nM

B13: PAP (prostatic acid phosphatase) peptide, position 83, 10 amino acids (peptide)
peptide: EYIRKRYRKF
- relative binding ratio (IC50 of standard peptide / IC50 of test peptide) [21]: 0.0067

B14: peptide 1418.19 (HuK2.170.V9) (peptide)
peptide: SLQCVSLHV
- IC50 [16]: 56 nM
- IC50 [18]: 4110 nM
- IC50 [19]: 48 nM

B15: Peptide 1419.61 … (PAP.122.V10) (peptide)
peptide: ALFPPEGVSV
- IC50 [4]: 1 nM

B16: Peptide 60.0220 (PSA.187.V9) (peptide)
peptide: KVTKFMLCV
- IC50 [1]: 69 nM
- IC50 [2]: 128 nM
- IC50 [3]: 518 nM

B17: PAP (prostatic acid phosphatase) peptide, position 17, 10 amino acids (peptide)
peptide: GFLFLLFFWL
- relative binding ratio (IC50 of standard peptide / IC50 of test peptide) [21]: 0.0007

B18: peptide 63.0014 (HuK2.121) (peptide)
peptide: LMLLRLSEPA
- IC50 [16]: 200 nM
- IC50 [17]: 5000 nM

B19: peptide 1418.35 (HuK2.11.V10) (peptide)
peptide: SVGCTGAVPV
- IC50 [16]: 104 nM
- IC50 [18]: 552 nM
- IC50 [19]: 154 nM

B20: Kallikrein (human kallikrein2) peptide, position 178, 10 amino acids (peptide)
peptide: LLSNDMCARA
modifications: not fully specified
- relative binding ratio [8, 26]: 0.003
- relative binding ratio [9, 26]: 0.002
- relative binding ratio [10, 26]: 0.028
- relative binding ratio [11, 26]: 0.08

B21: PAP position 213, 9 amino acids (peptide)
peptide: LYCESVHNF
- relative binding ratio (IC50 of standard peptide / IC50 of test peptide) [7]: 0.44
- relative binding ratio (IC50 of standard peptide / IC50 of test peptide) [6]: 0.44

B22: Kallikrein position 156, 10 amino acids (…) (peptide)
peptide: GWGSIEPEEF
- relative binding ratio (IC50 of standard peptide / IC50 of test peptide) [22]: 0.0001

B23: peptide 1419.66 (HuK2.170, 10-mer) (peptide)
peptide: SLQCVSLHLL
- IC50 [16]: 263 nM
- IC50 [17]: 5000 nM
- IC50 [18]: 446 nM
- IC50 [20]: 4.9 nM

B24: Peptide 63.0058 (PSA.166.V10) (peptide)
peptide: KLQCVDLHVV
- IC50 [2]: 500 nM

B25: PAP (prostatic acid phosphatase) peptide, position 23, 9 amino acids (peptide)
peptide: FFWLDRSVL
- relative binding ratio (IC50 of standard peptide / IC50 of test peptide) [21]: 0.0017

B26: Kallikrein position 142, 10 amino acids (peptide)
peptide: PTQEPALGTT
- relative binding ratio (IC50 of standard peptide / IC50 of test peptide) [8]: 0.0084
- relative binding ratio (IC50 of standard peptide / IC50 of test peptide) [9]: 0.0037
- relative binding ratio (IC50 of standard peptide / IC50 of test peptide) [10]: 0.052
- relative binding ratio (IC50 of standard peptide / IC50 of test peptide) [11]: 0.022

B27: Peptide 63.0034 … (PAP.30.V10) (peptide)
peptide: VLAKELKFVV
- IC50 [12]: 2290 nM
- IC50 [15]: 86 nM

B28: peptide 60.0191 (HuK2.170, 9-mer) (peptide)
peptide: SLQCVSLHL
- IC50 [16]: 500 nM
- IC50 [17]: 2580 nM
- IC50 [19]: 417 nM
- IC50 [20]: 51 nM

B29: PAP position 123, 10 amino acids (peptide)
peptide: LFPPEGVSIW
- relative binding ratio (IC50 of standard peptide / IC50 of test peptide) [7]: 0.014
- relative binding ratio (IC50 of standard peptide / IC50 of test peptide) [6]: 0.014

B30: PSA peptide, position 119, 11 amino acids (peptide)
peptide: LLRLSEPAELT
- relative binding ratio [8, 26]: 0.0023
- relative binding ratio [9, 26]: 0.0002

B31: PAP position 205, 9 amino acids (…) (peptide)
peptide: IWSKVYDPL
- relative binding ratio (IC50 of standard peptide / IC50 of test peptide) [22]: 0.0024

B32: Peptide 60.0207 … (PAP.128.V9) (peptide)
peptide: GVSIWNPIV
- IC50 [23]: 455 nM
- IC50 [24]: 909 nM
- IC50 [4]: 269 nM

B33: PAP peptide, position 88, 10 amino acids (A24 supermotif) (peptide)
peptide: RYRKFLNESY
- relative binding ratio (IC50 of standard peptide / IC50 of test peptide) [25]: 0.0057

B34: PSA peptide, position 4, 10 amino acids (peptide)
peptide: LTLSVTWIGA
- relative binding ratio [8, 26]: 0.0018
- relative binding ratio [9, 26]: 0.011
- relative binding ratio [10, 26]: 0.082
- relative binding ratio [11, 26]: 0.045

B35: peptide 1418.67 (HuK2.177.V11) (peptide)
peptide: HLLSNDMCARV
- IC50 [17]: 860 nM
- IC50 [18]: 37 nM
- IC50 [19]: 5.3 nM
- IC50 [20]: 1.3 nM

B36: PAP (prostatic acid phosphatase) peptide, position 17, 9 amino acids (peptide)
peptide: GFLFLLFFW
- relative binding ratio (IC50 of standard peptide / IC50 of test peptide) [21]: 0.0016

B37: Kallikrein position 248, 10 amino acids (…) (peptide)
peptide: HYRKWIKDTI
- relative binding ratio (IC50 of standard peptide / IC50 of test peptide) [22]: 0.055

B38: PAP peptide, position 62, 9 amino acids (A24 supermotif) (peptide)
peptide: SWPQGFGQL
- relative binding ratio (IC50 of standard peptide / IC50 of test peptide) [25]: 0.0013

B39: Peptide 1177.02 … (PAP.299) (peptide)
peptide: ALDVYNGLL
- IC50 [23]: 73 nM
- IC50 [24]: 256 nM

B40: Peptide 63.0185 (PSA.1.V11) (peptide)
peptide: VVFLTLSVTWV
- IC50 [1]: 89 nM
- IC50 [2]: 336 nM

B41: PAP peptide, position 96, 9 amino acids (A24 supermotif) (peptide)
peptide: SYKHEQVYI
- relative binding ratio (IC50 of standard peptide / IC50 of test peptide) [25]: 0.26

B42: PAP position 123, 9 amino acids (peptide)
peptide: LFPPEGVSI
- relative binding ratio (IC50 of standard peptide / IC50 of test peptide) [7]: 0.0033
- relative binding ratio (IC50 of standard peptide / IC50 of test peptide) [6]: 0.0033
